Experimental data from patent publication US20260132182A1 (published 2026).
Starred links: 1 amine or outer side, 2 acyl side, 3 side chain; linkers in the order of their positions; H or OH if unused. Non-standard residues stand in square brackets, D forms with d. Groups on a side chain read outwards from the residue. *: point of attachment. C20 diacid = O=C(O)CCCCCCCCCCCCCCCCCCC(=O)*; C18 diacid = O=C(O)CCCCCCCCCCCCCCCCC(=O)*; C16 diacid = O=C(O)CCCCCCCCCCCCCCC(=O)*; γGlu = O=C(O)[C@H](CCC(=O)[*:2])N[*:1]; Trx = NC[C@H]1CC[C@H](C(=O)O)CC1; AEEA = NCCOCCOCC(=O)O; Aib = CC(C)(N)C(=O)O

B1: Compound 0052 (peptide)
peptide: H[Aib]EGTFTSDVSSYLEGQAAK([AEEA-AEEA-γGlu-C18 diacid])EFIAWLVRGRGGGGGGGGGEASELSTAALGRLSAELHELATLPRTETGSGSP-NH2
B2: Compound 0511 (peptide)
peptide: H[Aib]EGTFTSDVSRYLEEQAAREFIEWLVRGRK([AEEA-AEEA-γGlu-Trx-C20 diacid])GGGGEASELSTAALGRLSAELHELATLPRTETGSGSP-NH2
B3: Compound 0503 (peptide)
peptide: H[Aib]EGTFTSDVSSYLEEQAAREFIEWLVRGRK([AEEA-AEEA-γGlu-Trx-C20 diacid])GGGGEASELSTAALGRLSAELHELATLPRTETGSGSP-NH2
B4: Compound 0512 (peptide)
peptide: H[Aib]EGTFTSDVSSYLEEQAAREFIAWLVRGRK([AEEA-AEEA-γGlu-Trx-C20 diacid])GGEASELSTAALGRLSAELHELATLPRTETGSGSP-NH2
B5: Compound 0509 (peptide)
peptide: H[Aib]EGTFTSDVSSYLEEQAARK([AEEA-AEEA-γGlu-C16 diacid])FIAWLVRGRGGGGGEASELSTAALGRLSAELHK([AEEA-AEEA-γGlu-C16 diacid])LATLPRTETGSGSP-NH2
B6: Compound 0502 (peptide)
peptide: H[Aib]EGTFTSDVSSYLEEQAAREFIAWLVRGRK([AEEA-AEEA-γGlu-C20 diacid])GGGGEASELSTAALGRLSAELHELATLPRTETGSGSP-NH2
B7: Compound 0516 (peptide)
peptide: H[Aib]EGTFTSDVSK([AEEA-AEEA-γGlu-C16 diacid])YLEEQAARKFIAWLVRGRGGGGGEASELSTAALGRLSAELHELATLPRTETGSGSP-NH2
modifications: not fully specified (residue 21)
B8: Compound 0518 (peptide)
peptide: H[Aib]EGTFTSDVSK([AEEA-AEEA-γGlu-Trx-C20 diacid])YLEEQAAREFIAWLVRGRGGGGGEASELSTAALGRLSAELHELATLPRTETGSGSP-NH2
B9: Compound 0504 (peptide)
peptide: H[Aib]EGTFTSDVSSYLEEQAAREFIAWLVRGRPK([AEEA-AEEA-γGlu-Trx-C20 diacid])GGGGEASELSTAALGRLSAELHELATLPRTETGSGSP-NH2
B10: Compound 0528 (peptide)
peptide: H[Aib]EGTFTSDVSK([AEEA-AEEA-γGlu-C16 diacid])YLEEQAAREFIAWLVRGRK([AEEA-AEEA-γGlu-C16 diacid])GGGGEASELSTAALGRLSAELHELATLPRTETGSGSP-NH2
B11: Compound 0056 (peptide)
peptide: H[Aib]EGTFTSDVSSYLEGQAAK([AEEA-AEEA-γGlu-C18 diacid])EFIAWLVRGRGK([AEEA-AEEA-γGlu-C18 diacid])QEPGQEPEASELSTAALGRLSAELHELATLPRTETGSGSP-NH2
B12: Compound 0506 (peptide)
peptide: H[Aib]EGTFTSDVSSYLEEQAAREFIAWLVRGRKGGGGEASELSTAALGRLSAELHELATLPRTETGSGSP-NH2
modifications: not fully specified (residue 31)

Target: T1, human amylin-3 (a) receptor (human, UniProt P30988 25-474; O60896 24-148)
T1 sequence (looked up) 1: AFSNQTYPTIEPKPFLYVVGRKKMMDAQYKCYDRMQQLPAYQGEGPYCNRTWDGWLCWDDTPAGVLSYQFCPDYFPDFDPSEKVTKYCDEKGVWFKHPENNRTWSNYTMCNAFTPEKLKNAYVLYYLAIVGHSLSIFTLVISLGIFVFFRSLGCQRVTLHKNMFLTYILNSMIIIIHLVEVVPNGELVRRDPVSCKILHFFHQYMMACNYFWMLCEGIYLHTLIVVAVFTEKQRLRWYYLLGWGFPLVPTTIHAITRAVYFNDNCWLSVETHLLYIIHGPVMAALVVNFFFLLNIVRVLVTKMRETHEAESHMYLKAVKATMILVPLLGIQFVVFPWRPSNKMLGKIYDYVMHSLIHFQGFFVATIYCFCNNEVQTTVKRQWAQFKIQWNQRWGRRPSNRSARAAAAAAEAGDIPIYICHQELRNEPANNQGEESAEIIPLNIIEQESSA
T1 sequence (looked up) 2: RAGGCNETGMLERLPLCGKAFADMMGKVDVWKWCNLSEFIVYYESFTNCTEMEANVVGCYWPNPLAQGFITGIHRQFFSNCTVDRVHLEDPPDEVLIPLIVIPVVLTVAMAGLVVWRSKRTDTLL
Test: cell-based or functional assay

| Binder | Human AmyR3 potency [EC50 (pM)] |
| --- | --- |
| B1 | 19.4 pM |
| B2 | 8.4 pM |
| B3 | 7.7 pM |
| B4 | 10.8 pM |
| B5 | 29.9 pM |
| B6 | 9 pM |
| B7 | 8.9 pM |
| B8 | 4.4 pM |
| B9 | 6 pM |
| B10 | 22 pM |
| B11 | 120 pM |
| B12 | 9.8 pM |

Target: human GLP-1 receptor (human, UniProt P43220 24-463)
Test: cell-based or functional assay

| Binder | Human GLP-1R potency [EC50 (pM)] |
| --- | --- |
| B1 | 17 pM |
| B2 | 8.8 pM |
| B3 | 6.5 pM |
| B4 | 7.6 pM |
| B5 | 7.1 pM |
| B6 | 8.4 pM |
| B7 | 3.3 pM |
| B8 | 3.4 pM |
| B9 | 8.3 pM |
| B10 | 3.8 pM |
| B11 | 41.4 pM |
| B12 | 5.8 pM |
